Measured values reported in patent publication US20240383999A1 (University of Texas, published 2024).

B1: R-3 (antibody, V domains shown)
VH: QSLKESGGRLVKPDETLTITCTASGIDLTSGTVGWFRQAPGKGLEWIGIIRGSGSTYYATWAKGRFTISKTSTTVDLKLTSPTTEDTATYLCARAFPGYNTFFNFWGQGTLVTISS
VL: ELDLTQTPSSVEAAVGGTVTIKCQASESIGNALAWYQQKPGQPPKLLIWKASNLESGVPPRFKGSGSGTEFTLTISDLECADAATYYCQRYYFNGVSVEIVFGGGTEVVVKG
B2: H-447 (antibody, V domains shown)
VH: EVQLVQSGGGLVQPGGSLRLSCAASGFTVSSNYMSWVRQAPGKGLEWVSVIYSGGSTYYADSVKGRFTISRHNSKNTLYLQMNSLRAEDTAVYYCARESAVAGWGMDVWGKGTTVTVSS
VL: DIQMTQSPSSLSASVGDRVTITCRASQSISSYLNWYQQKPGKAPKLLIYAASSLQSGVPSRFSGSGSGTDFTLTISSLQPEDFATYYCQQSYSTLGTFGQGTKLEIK
B3: R-13 (antibody, V domains shown)
VH: QSLEESGGRLVTPGTPLTLTCTVSGFSLSSYPMSWVRQAPGKGLEWIGIITSGGSIFYATWANGRFTISKTSTTVDLKITSPTTEDTATYFCARGYSSGTMMSSNLWGQGTLVTVSS
VL: ELVLTQTPASVSEPVGGTVTIKCQASESISTYLSWYQQKPGQRPKLLIYRASTLESGVPSRFKGSGSGTEYTLTISGVQCADAATYYCQQGYTYKNVDNAFGGGTEVVVK
B4: R-34 (antibody, V domains shown)
VH: QSVKESGGRLVTPGTPLTLTCTVSGFSLSSSGMSWVRQAPGKGLEWIGLTFPSGSASYASWAKGRFTVSRTSTTVDLNLTSPTTEDTATYFCAHVGATTGRDFWGQGTLVTVSS
VL: ELVMTQTASSVSAAVGGTVTISCQSSQNIYNNRWSWYQQKPGQPPKLLIYQASTLASGVPSRFKGSGSGTQFTLTISGVQCDDAATYYCAGGYSGTIFTFGGGTELEIK
B5: R-40 (antibody, V domains shown)
VH: QSVKESGGRLVKPDETLTITCTVSGIDLSRYSIQWVRQAPGGGLQWIGVMSIGSSAYYANWAKGRFTISKTSSTTVDLTMTSLTAADTATYFCARSNLYRGAFDPWGPGTLVTISS
VL: ELVMTQTPASVEAAVGGTVTIKCQSSESVYKNNYLSWYQLKPGQPPKLLFYSASTLASRVPSRFSGSGSGTQFTLTISDLECDDAATYYCAGYYGSSSVDRYTFGGGTEVEIK
B6: R-45 (antibody, V domains shown)
VH: QSVKESGGRLVTPGTPLTLTCTVSGFSINDFHMCWVRQAPGKGLEYIGMIGTGGSAYYATWTKGRFTISRTSTTVDLKITSPTTEDTATYFCARRDWSDGGYSLLWGQGTLVTVSS
VL: ELDLTQTPASVSEPVGGTVTIKCQASQSIRTYLNWYQQKPGQPPKLLIYSASTLASGIPSRFKGSGSGTQFTLTISDLECADAATYYCQQGYYWSDVENTFGGGTEVEIN
B7: R-35 (antibody, V domains shown)
VH: AAVKESGGRLVTPGTPLTLTCTVSGIDLSDYYMTWVRQAPGKGLEYIGIIYASGNAYFASWAKGRFTISRTSSTTVDLNVASPTTEDTATYFCARNIGGSSNLWGQGTLVTVSS
VL: ELDMTQTPASVSEPVGGTVTIKCQASERIYNNLAWYQQKPGQPPKLLFYSASTLASGVPSRFKGSGSGTEFTLTISDLECADAAIYYCQCTGYGTTYGLVFGGGTEVEI
notes: also called anti-CD5L antibody R-35; CD5L antibody (R-35)
B8: R-18 (antibody, V domains shown)
VH: QSVKESGGRLVTPGTPLTLTCTVSGFSLSNYAMSWVRQAPGKGLEWIGIIVTSGSTYYASWAKGRFTISKTSTTVDLKMTSLTAADTATYFCARHAYSIGSSLWGQGTLVTISS
VL: ELDLTQTPPSASEPVGGTVTIKCQASESISVRLAWYQQKPGQPPKLLIYKASNLPSGVPSRFKGSGSGTEFTLTISDLECDDAATYYCRNYYDISNNGAGFGGGTEVEIK

Target: T1, Human recombinant CD5L protein (Sino Biological, Catalog Number 10791-H08H) (human, UniProt O43866 20-347)
T1 construct: Bought protein; also called human CD5L; CD5L-His; not shown: 6xHIS-tag
T1 sequence (looked up): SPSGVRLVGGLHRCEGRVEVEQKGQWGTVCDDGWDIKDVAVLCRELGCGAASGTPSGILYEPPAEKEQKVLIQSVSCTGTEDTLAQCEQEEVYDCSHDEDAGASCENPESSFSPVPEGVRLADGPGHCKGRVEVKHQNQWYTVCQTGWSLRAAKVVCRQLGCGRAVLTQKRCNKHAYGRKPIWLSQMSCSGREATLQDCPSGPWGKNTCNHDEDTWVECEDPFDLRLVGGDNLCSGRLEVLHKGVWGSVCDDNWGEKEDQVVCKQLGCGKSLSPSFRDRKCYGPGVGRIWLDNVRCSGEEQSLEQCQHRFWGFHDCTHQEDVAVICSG
Test: BLI (Octet RED96), antibody on protein A biosensors, CD5L 0.1-200 nM in solution, 1:1 fit
Experimental: All experiments were performed with shaking at 1,000 rpm. Background wavelength shifts were measured from reference biosensors that were loaded only with antibody. ForteBio's data analysis software was used to fit the data to a 1:1 binding model to extract an association rate and dissociation rate.

Binder	Kd [nM]
B1	2.18
B2	28.7
B3	1.72
B4	1.35
B5	1.74
B6	2.97
B7	0.78
B8	1.56

Target: T1, Human recombinant CD5L protein (Sino …)
Test: titration ELISA, human CD5L coated on plate
Experimental: FIG. 11. […] Bound antibody was detected using a secondary antibody against rabbit IgG conjugated with HRP and TMB substrate for detection of A450 nm. EC₅₀ was estimated using GraphPad software by applying a 4-parameter fitting to calculate binding affinity of the antibodies.
Binding constants (EC₅₀) of a panel of monoclonal antibodies were estimated by titration ELISA, and the data were analyzed using the 4-parameter curve fitting with GraphPad Prism program (Table 6).

Binder	EC50 [µg/mL]
B1	0.183
B2	0.25
B3	0.116
B4	0.22
B5	0.21
B6	0.0788
B7	0.169
B8	0.19
